The source of these data is patent US20240239907A1 (EDELWEISS IMMUNE, published 2024).

For experiment [1], the target named is T1, N-terminal fusion protein linking the extracellular N terminus of human CXCR6 and the Fc region of human IgG1 (human, not fully specified).
T1 construct: not shown: Fc region of human IgG1
T1 chain: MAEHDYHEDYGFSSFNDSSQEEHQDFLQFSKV
In words: antibody pre-incubated with N-terminus-Fc fusion before staining human CXCR6 cells, flow cytometry (FIG. 12B). The method, then: Three candidate antibodies that bind only to human CXCR6 and three candidate antibodies that bind to both human and cyno CXCR6 were further analyzed to locate their epitope residues. An N-terminal fusion protein was generated by linking the extracellular N terminus of human CXCR6 and the Fc region of human IgG1. Prior to staining cells over-expressing human CXCR6, the candidate antibodies (1 μg/ml) were pre-incubated with the N-terminal fusion protein (25 μg/ml) for 15 minutes at room temperature. A commercial antibody (R&D system, Minneapolis, MN) that only binds to human CXCR6 but not cyno- or mouse-CXCR6, was used as a control antibody.

In experiment [2] the target is T2, human CXCR6 (human, UniProt O00574 1-342).
T2 construct: also called hu-CXCR6; wild type human CXCR6
T2 sequence (O00574 whole entry): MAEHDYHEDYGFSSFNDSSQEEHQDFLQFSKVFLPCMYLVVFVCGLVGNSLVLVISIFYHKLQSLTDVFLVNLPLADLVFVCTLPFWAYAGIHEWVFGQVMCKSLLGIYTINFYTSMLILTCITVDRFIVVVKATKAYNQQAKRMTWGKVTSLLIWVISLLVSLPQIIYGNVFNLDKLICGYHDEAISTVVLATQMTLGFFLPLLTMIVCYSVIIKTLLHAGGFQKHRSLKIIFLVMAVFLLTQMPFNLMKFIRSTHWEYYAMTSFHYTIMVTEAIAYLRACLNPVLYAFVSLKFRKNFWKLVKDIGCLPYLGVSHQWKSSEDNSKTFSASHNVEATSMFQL
In words: screening on cells overexpressing CXCR6, one single concentration, yes/no.

Experiment [3] deals with T3, cynomolgus monkey CXCR6 (cynomolgus monkey, UniProt Q9BDS6 1-343).
T3 construct: also called cyno-CXCR6; cyno monkey CXCR6
T3 sequence: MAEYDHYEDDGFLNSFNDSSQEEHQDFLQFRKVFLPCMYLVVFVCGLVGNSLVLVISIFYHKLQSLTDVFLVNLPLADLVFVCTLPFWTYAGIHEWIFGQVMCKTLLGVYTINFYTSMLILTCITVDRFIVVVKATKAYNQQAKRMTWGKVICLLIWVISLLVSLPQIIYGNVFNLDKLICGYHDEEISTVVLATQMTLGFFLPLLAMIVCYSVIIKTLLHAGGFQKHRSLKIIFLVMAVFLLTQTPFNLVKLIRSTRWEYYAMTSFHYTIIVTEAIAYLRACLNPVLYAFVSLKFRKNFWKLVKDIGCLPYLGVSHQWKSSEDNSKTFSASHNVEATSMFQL
The description is as above.

For experiment [4], the target named is T2, human CXCR6. The experiment in a line: description of the chimeric clones used in the ADCC example.
In experiment [5] the target is T3, cynomolgus monkey CXCR6. Described as above.
The target of experiment [6] is T2, human CXCR6. The experiment in a line: flow cytometry on human CXCR6 over-expressing cells, no huCXCL-16 (FIG. 16). As to the method: (§1) After washing and staining with secondary antibody, cells were analyzed by flow cytometry. The ED₅₀ for huCXCL-16 binding to human CXCR6 is 10-50 ng/ml. Thus, 1,500 ng/ml huCXCL-16 is an overwhelming concentration for competing with chimeric Genovac2-C1. In the absence of huCXCL-16, the ED₅₀ for chimeric Genovac2-C1 binding to human CXCR6 was 0.5 μg/ml (FIG. 16). In the presence of huCXCL-16 (1,500 ng/ml), the ED₅₀ for chimeric Genovac2-C1 binding to human CXCR6 was 1.5 μg/ml (FIG. 16). Accordingly, the human/mouse chimeric mAb retains the binding specificity and affinity in the presence of CXCL-16.

Experiment [7] concerns the target T2, human CXCR6. The experiment in a line: flow cytometry on human CXCR6 over-expressing cells pre-incubated with competitor huCXCL-16 at 1,500 ng/ml (FIG. 16). As to the method:
as §1

Experiment [8] deals with T3, cynomolgus monkey CXCR6. The experiment in a line: flow cytometry on cells overexpressing CXCR6, serial dilutions of antibody (FIG. 11). The method, then: Wild type C57BL/6 mice were immunized and boosted with a full-length human CXCR6-vector. Prior to immunization, the vector was tested for cell surface expression of native human CXCR6 on transfected mammalian cell lines by flow cytometry to ensure a successful immunization and screening. Genetic immunization was performed by ballistically delivering DNA-coated gold particles into the skin of wild type C57BL/6 mice to elicit a target-specific immune response. After the serum test showing satisfactory titer of antibody binding to both human CXCR6 and cyno monkey CXCR6, mice were sacrificed. A single B cell platform was used to sequentially screen bone marrow antibody-producing plasma cells for binding to both human and cyno monkey CXCR6. The conventional hybridoma technique was used on splenocytes and lymph node cells. […] After sequencing the VH and VL, clones with distinct CDRs were further expressed as full-length murine antibodies or human chimeric antibodies. […]
Cells overexpressing human-CXCR6 (hu-CXCR6), cyno monkey CXCR6 (cyno-CXCR6) or mouse CXCR6 were cultured in DMEM medium containing 10% FCS. […] After two rounds of washing with PBS/0.5% BSA buffer, cells were further stained with fluorescence dye-labeled secondary antibody. After two more rounds of washing, cells were resuspended in PBS/0.5% BSA, fixed, and collected by flow cytometry and analyzed.

B1: Beacon2-G5 (antibody, V domains shown)
VH: EVQLVESGGDLVKPGGSLKLSCAASGFTFSSYGMSWVRQTPDKRLEWVATISSRGSYTYYPDSVKGRLTISRENAKNTLSLQMSSLKSEDTAMYYCARRVFPYWFFDVWGAGTTVTVSS
VL: DIVMTQSHKFMSTSVGDRVSITCKASQDVSTAVAWYQQKSGQSPKLLIYSASYRYTGVPDRFTGSGSGTDFTFTISSVQAEDLAVYYCQQHYTTPYTFGGGTKLEIK
notes: Mouse-derived
Consider B1, for which the binding result in experiment [1] was “no binding”; in the experiment with human CXCR6 [2] it was “binds”; in the experiment with cynomolgus monkey CXCR6 [3], “binds”.

B2: Genovac1-G2 human/mouse chimeric antibody with human IgG1 Fc (antibody, V domains shown)
VH: DVQLQESGPGLVKPSQSLSLTCSVTGYSITSGYYWNWIRQFPGNKLEWMGYIRYDGSNNYNPSLKNRISITRDTSKNQFFLKLNSVTTEDTATYYCARDGYSTYFDYWGQGTTLTVSS
VL: DIQMTQSPASLSASVGETVTITCRASENIYSYLAWYQQKQGKSPQLLVYNAKTLAEGVPSRFSGSGSGTQFSLKINSLQPEDFGSYYCQHHYGTPWTFGGGTKLEIK
Consider B2, for which the binding result with human CXCR6 [4] and in the experiment with cynomolgus monkey CXCR6 [5] was “binds” in each case.

B3: chimeric Genovac2-C1 (antibody, V domains shown)
VH: DVKLVESGGGLVKPGGSLKLSCAASGFTFSSYTMSWVRQTPEKRLEWVATISSGGSYTYYPDSVKGRFTISRDNAKNTLYLQMSSLKSEDTAMYYCTRGGGNYPFWFFDVWGAGTTVTVSS
VL: DIQMTQSPASLSASVGETVTITCRASENIYSYLAWYQQKQGKSPQLLVYNAKTLAEGVPSRFSGSGSGTQFSLKIKSLQPEDFGSYYCQHHYGIPRTFGGGTKVETK
notes: also called Genovac2-C1 human chimeric mAb; human/mouse chimeric mAb
With B3, the EC50 with human CXCR6 [6] is 0.5 mg/L; with human CXCR6 [7] it was 1.5 mg/L. Also, in the experiment with cynomolgus monkey CXCR6 [5], the binding result is on record as “binds”.

B4: Genovac1-G2 (antibody, V domains shown)
VH: DVQLQESGPGLVKPSQSLSLTCSVTGYSITSGYYWNWIRQFPGNKLEWMGYIRYDGSNNYNPSLKNRISITRDTSKNQFFLKLNSVTTEDTATYYCARDGYSTYFDYWGQGTTLTVSS
VL: DIQMTQSPASLSASVGETVTITCRASENIYSYLAWYQQKQGKSPQLLVYNAKTLAEGVPSRFSGSGSGTQFSLKINSLQPEDFGSYYCQHHYGTPWTFGGGTKLEIK
notes: Mouse-derived
B4: the binding result in the experiment with cynomolgus monkey CXCR6 [8] and in the experiment with human CXCR6 [2] was “binds” each time.

B5: Genovac2-C1 (antibody, V domains shown)
VH: DVKLVESGGGLVKPGGSLKLSCAASGFTFSSYTMSWVRQTPEKRLEWVATISSGGSYTYYPDSVKGRFTISRDNAKNTLYLQMSSLKSEDTAMYYCTRGGGNYPFWFFDVWGAGTTVTVSS
VL: DIQMTQSPASLSASVGETVTITCRASENIYSYLAWYQQKQGKSPQLLVYNAKTLAEGVPSRFSGSGSGTQFSLKIKSLQPEDFGSYYCQHHYGIPRTFGGGTKVETK
notes: Mouse antibody
Consider B5, for which the binding result with cynomolgus monkey CXCR6 [8] is reported as “binds”.
